Laboratory results reported in patent US20100003232.

Tests used:
[1] = target: Aβ produced naturally by APPswe.3 cells (secreted Aβ in conditioned medium) (UniProt P05067)
amyloid-β peptide (1-42) = amyloid-β peptide (1-42) (UniProt P05067)
Human insulin = Human insulin (UniProt P01308)
[2] = target: secreted ectodomain of the amyloid precursor protein derivative generated by α-secretase (APPsα) (UniProt P05067)
β-Amyloid (1-40) = β-Amyloid (1-40) (UniProt P05067)

UniProt P01308, sequence (P01308 whole entry, looked up, the tested form may be a part): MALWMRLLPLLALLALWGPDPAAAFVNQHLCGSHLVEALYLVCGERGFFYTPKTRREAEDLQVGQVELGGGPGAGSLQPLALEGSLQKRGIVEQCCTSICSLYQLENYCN

| Substance | t½ for the degradation of secreted Aβ [1] | degradation followed by MALDI-TOF (amyloid-β peptide (1-42)) | degradation followed by MALDI-TOF (Human insulin) | degradation in conditioned medium (Western blot) [2] | Hill coefficient (β-Amyloid (1-40)) | Kcat (β-Amyloid (1-40)) [s⁻¹] | Km (β-Amyloid (1-40)) [µM] |
| --- | --- | --- | --- | --- | --- | --- | --- |
| IDE D426C/K899C double cysteine mutant | that by the IDE D426C/K899C mutant was 2 minutes | all three double cysteine IDE mutants degraded both insulin and Aβ(1-42) more effectively than wild-type IDE | all three double cysteine IDE mutants degraded both insulin and Aβ(1-42) more effectively than wild-type IDE | IDE had no effect on the secreted ectodomain of the amyloid precursor protein derivative generated by α-secretase (APPsα) | 2.3 | 20 | – |
| wild type human insulin-degrading enzyme (IDE) | The estimated t½ for the degradation of secreted Aβ by wild-type IDE was 11 minutes | – | – | IDE had no effect on the secreted ectodomain of the amyloid precursor protein derivative generated by α-secretase (APPsα) | 2.9 | 8 | 25 |
